Drawing on paper PMC3316669, this text covers Kd and stoichiometry N for six substances.

For experiment [1], the target named is ssTorA-SBP signal peptide (Escherichia coli) (UniProt P33225). The experiment can be described thus: SPR. To be noted: cited from earlier work.
Experiment [2] addresses MBP-ssTorA signal peptide (Escherichia coli) (UniProt P33225). Description: ITC. To be noted: cited from earlier work.
In experiment [3] the target is TorA signal peptide 10-26 (Escherichia coli) (UniProt P33225). The experiment can be described thus: ITC. To be noted: cited from earlier work.
Experiment [4] deals with TorD with N-terminal His-tag (E. coli) (UniProt P36662). Description: SPR; quantitative, equilibrium response against pre-protein concentration; His-tagged REMP held on a Ni-NTA chip to 500 RU, 20 µl/min, 25°C, reference surface subtracted; Scatchard plot and Langmuir 1:1 fit; 10 mM HEPES, 150 mM NaCl, 50 µM EDTA, 0.005% P20, pH 7.4. On the technique in general: SPR reads the build-up and loss of mass on a sensor chip optically.

Sequence of TorD (P36662 whole entry): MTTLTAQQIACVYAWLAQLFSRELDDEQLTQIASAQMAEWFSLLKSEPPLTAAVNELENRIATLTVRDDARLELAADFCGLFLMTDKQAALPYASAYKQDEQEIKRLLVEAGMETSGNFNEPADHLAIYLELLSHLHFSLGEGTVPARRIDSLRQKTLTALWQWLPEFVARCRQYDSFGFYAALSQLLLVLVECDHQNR

By Kd is commonly meant a measure of binding affinity in units of concentration. For the substance TorD (from UniProt P36662), the values for the Kd in experiment [1], in experiment [2] and in experiment [3] were 3800 nM, 59 nM and 1700 nM, respectively. For the substance ssTorA(KK)-GFP (domain or fragment), the Kd in experiment [4] came out at 540 nM.

In experiment [4], ssTorA(KKK)-GFP (domain or fragment) had a Kd of 4900 nM. In experiment [4], ssTorA(KR)-GFP (domain or fragment) registered a dissociation constant Kd of 2900 nM.

In turn, ssTorA(RK)-GFP (domain or fragment) showed a Kd in experiment [4] of 3600 nM. A word on the stoichiometry N: it is the number of molecules, sites or subunits per partner or assembly. In experiment [4], “ssTorA-GFP (signal sequence of TorA fused to GFP) (domain or fragment)” displayed a Kd of 330 nM and a stoichiometry N of 1.
